In patent US20150125444A1 (AstraZeneca / MedImmune, published 2015):

T1: Human FcγRIIb extracellular domain (human, UniProt P31994 43-217)
T1 construct: extracellular domain
T1 sequence (looked up): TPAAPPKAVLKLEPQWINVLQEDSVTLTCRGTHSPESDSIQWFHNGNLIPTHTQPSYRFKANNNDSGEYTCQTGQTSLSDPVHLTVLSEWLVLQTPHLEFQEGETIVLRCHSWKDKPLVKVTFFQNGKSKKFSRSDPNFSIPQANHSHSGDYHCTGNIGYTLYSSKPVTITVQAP

T2: Human FcγRIIa extracellular domain (human, UniProt P12318 34-217)
T2 construct: extracellular domain
T2 sequence (looked up): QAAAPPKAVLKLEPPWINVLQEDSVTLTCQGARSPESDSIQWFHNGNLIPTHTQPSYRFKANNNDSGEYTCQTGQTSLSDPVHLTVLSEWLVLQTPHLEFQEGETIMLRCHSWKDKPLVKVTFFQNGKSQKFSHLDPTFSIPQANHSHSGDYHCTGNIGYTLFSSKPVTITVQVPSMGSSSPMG


Assays:
[1] = molecular target: Human FcRn (extracellular domain) (human, UniProt P55899 24-297); assay: SPR (ProteOn XPR36), antibody immobilised, steady state, pH 6.0
Procedure: (§1) Experiments were performed using the ProteOn XPR36 surface plasmon resonance system (Bio Rad). Phosphate buffered saline with 0.005% Tween 20 (PBS/Tween), pH 7.4 was used as running buffer for most experiments with the exception of Human FcRn (extracellular domain) binding in which Phosphate buffered saline with 0.005% Tween 20 (PBS/Tween), pH 6.0 was used. All experiments were performed at 25° C. Antibodies were immobilized on a ProteOn™ GLC Sensor Chip (#176-5011) using EDAC (1-Ethyl-3-[3-dimethylaminopropyl]carbodiimide) and sulfo-NHS (N-hydroxysulfosuccinimide) to an R.U. (response unit) level of 4000-6000. C1q, FcγRI, FcγRIIa, FcγRIIb, FcγRIII(158V), FcγRIII(158F), and FcRn were then flowed over the IgG immobilized surface at various concentrations at a rate of 25 μl/minute for a long enough period of time to achieve steady state, or near steady state. Binding (if any could be determined) was quantified via steady state equilibrium binding analysis using the ProteOn software. Human FcγRI, FcγRIIa, FcγRIIb, FcγRIII(158V), FcγRIII(158F), and FcRn extracellular domains were generated via mammalian expression vectors in house. Human C1q was obtained from Quidel (CA).

[2] = molecular target: T3, Human FcγRIIIa (158V) extracellular domain (human, UniProt P08637 17-208); assay: SPR (ProteOn XPR36), antibody immobilised, steady state, pH 7.4
T3 construct: extracellular domain; Position 158 is the usual allotype numbering (mature protein), not the precursor numbering of the database entry; also called FcγRIII(158V)
Procedure: as §1

[3] = molecular target: T4, Human FcγRIa extracellular domain (human, UniProt P12314 16-292); assay: as above
T4 construct: extracellular domain
Procedure: as §1

[4] = molecular target: T5, Human FcγRIIIa (158F) extracellular domain (human, UniProt P08637 17-208); assay: as above
T5 construct: extracellular domain; also called FcγRIII(158F)
Procedure: as §1

Human C1q = molecular target: T6, Human C1q (human, UniProt P02745 23-245; P02746 28-253; P02747 29-245); assay: as above
T6 construct: Bought complement protein; In the CDC assay C1q came with human serum
Procedure: as §1

[5] = molecular target: T1, Human FcγRIIb extracellular domain; assay: as above
Procedure: as §1

[6] = molecular target: T2, Human FcγRIIa extracellular domain; assay: as above
Procedure: as §1

T3 sequence (P08637 17-208 F176V): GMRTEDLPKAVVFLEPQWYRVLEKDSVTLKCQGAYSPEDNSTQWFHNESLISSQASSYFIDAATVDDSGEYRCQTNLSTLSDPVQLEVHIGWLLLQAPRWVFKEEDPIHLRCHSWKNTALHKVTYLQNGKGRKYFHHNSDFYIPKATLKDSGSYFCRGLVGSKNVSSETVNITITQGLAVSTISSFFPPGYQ
Chain of Human FcRn (extracellular domain) (P55899 24-297): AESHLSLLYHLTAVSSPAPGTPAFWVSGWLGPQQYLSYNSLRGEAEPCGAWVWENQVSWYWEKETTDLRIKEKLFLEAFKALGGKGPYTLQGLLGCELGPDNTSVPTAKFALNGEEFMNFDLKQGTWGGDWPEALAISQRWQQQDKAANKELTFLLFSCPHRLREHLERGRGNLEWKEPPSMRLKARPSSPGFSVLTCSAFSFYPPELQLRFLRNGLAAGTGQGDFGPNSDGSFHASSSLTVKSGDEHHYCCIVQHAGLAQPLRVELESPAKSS
T5 sequence (P08637 17-208): as the sequence (P08637 17-208 F176V) above, with V160F counted along it
T4 sequence (P12314 16-292): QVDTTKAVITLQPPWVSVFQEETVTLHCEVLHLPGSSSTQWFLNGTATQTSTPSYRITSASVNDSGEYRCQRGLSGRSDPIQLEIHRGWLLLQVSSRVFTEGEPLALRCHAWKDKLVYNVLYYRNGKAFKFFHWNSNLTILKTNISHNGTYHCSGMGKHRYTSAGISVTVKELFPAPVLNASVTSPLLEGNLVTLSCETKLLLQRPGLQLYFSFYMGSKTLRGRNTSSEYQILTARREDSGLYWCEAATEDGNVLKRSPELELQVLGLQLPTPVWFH
T6 sequence (P02745 23-245 limits assumed, chain 1 of 3): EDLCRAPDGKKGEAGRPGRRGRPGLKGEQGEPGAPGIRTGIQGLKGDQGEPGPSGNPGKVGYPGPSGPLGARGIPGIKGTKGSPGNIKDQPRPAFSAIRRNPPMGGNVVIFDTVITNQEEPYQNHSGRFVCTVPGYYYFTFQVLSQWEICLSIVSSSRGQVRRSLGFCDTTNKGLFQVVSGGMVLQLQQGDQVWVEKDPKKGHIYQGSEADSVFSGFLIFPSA
T6 sequence (P02746 28-253 limits assumed, chain 2 of 3): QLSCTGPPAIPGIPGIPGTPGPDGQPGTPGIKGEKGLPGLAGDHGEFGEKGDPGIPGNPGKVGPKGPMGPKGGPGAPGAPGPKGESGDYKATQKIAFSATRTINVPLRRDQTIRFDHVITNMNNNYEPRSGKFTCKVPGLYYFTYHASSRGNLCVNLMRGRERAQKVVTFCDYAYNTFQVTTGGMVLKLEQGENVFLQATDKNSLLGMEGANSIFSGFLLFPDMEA
T6 sequence (P02747 29-245 limits assumed, chain 3 of 3): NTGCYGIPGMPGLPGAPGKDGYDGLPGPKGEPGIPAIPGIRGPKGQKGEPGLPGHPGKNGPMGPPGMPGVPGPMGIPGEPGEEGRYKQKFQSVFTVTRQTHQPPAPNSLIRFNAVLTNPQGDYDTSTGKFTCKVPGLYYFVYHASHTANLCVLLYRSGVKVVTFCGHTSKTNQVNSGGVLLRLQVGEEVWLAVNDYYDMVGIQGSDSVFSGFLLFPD

Row | Kd [1] | Kd [2] | Kd [3] | Kd [4] | Kd (Human C1q) | Kd [5] | Kd [6] | binding result [2] | binding result [3] | binding result [4] | binding result (Human C1q) | binding result [5] | binding result [6] | Binder
1 | 1070 nM | 380 nM | 31 nM | 1600 nM | 250 nM | 2500 nM | 1000 nM | – | – | – | – | – | – | Ab4 (anti-C5a antibody 1B8) with wild-type IgG1 Fc domain (antibody, Full human IgG1 lambda antibody; also called Ab4 WT; WT) heavy: not shown light: QSALTQPPSASGTPGQRVTISCSGTNSNIGSNYVFWYQQLPGTAPKLLIFESNRRPSGVPDRFSGSKSDTSASLAISGLRSEDEADYYCATWDDTLIAPVFGSGTKVTVLGQPKANPTVTLFPPSSEELQANKATLVCLISDFYPGAVTVAWKADSSPVKAGVETTTPSKQSNNKYAASSYLSLTPEQWKSHRSYSCQVTHEGSTVEKTVAPAEC
2 | 270 nM | 820 nM | 43 nM | 2800 nM | 400 nM | 3600 nM | 1900 nM | – | – | – | – | – | – | Ab4 (anti-C5a antibody 1B8) with YTE variant IgG1 Fc domain (antibody, Full IgG1; also called Ab4 YTE) heavy: EVQLLESGGGLVQPGGSLRLSCAASGFTFSSYVMNWVRQAPGKGLEWVSSISPSGGRTWYADSVKGRFTISRDNSKNTLYLQMNSLRAEDTAVYYCARSDGSAAGFLGYWGQGTLVTVSSASTKGPSVFPLAPSSKSTSGGTAALGCLVKDYFPEPVTVSWNSGALTSGVHTFPAVLQSSGLYSLSSVVTVPSSSLGTQTYICNVNHKPSNTKVDKRVEPKSCDKTHTCPPCPAPELLGGPSVFLFPPKPKDTLYITREPEVTCVVVDVSHEDPEVKFNWYVDGVEVHNAKTKPREEQYNSTYRVVSVLTVLHQDWLNGKEYKCKVSNKALPAPIEKTISKAKGQPREPQVYTLPPSREEMTKNQVSLTCLVKGFYPSDIAVEWESNGQPENNYKTTPPVLDSDGSFFLYSKLTVDKSRWQQGNVFSCSVMHEALHNHYTQKSLSLSPGK light: QSALTQPPSASGTPGQRVTISCSGTNSNIGSNYVFWYQQLPGTAPKLLIFESNRRPSGVPDRFSGSKSDTSASLAISGLRSEDEADYYCATWDDTLIAPVFGSGTKVTVLGQPKANPTVTLFPPSSEELQANKATLVCLISDFYPGAVTVAWKADSSPVKAGVETTTPSKQSNNKYAASSYLSLTPEQWKSHRSYSCQVTHEGSTVEKTVAPAEC
3 | 350 nM | – | – | – | – | – | – | no binding | no binding | no binding | no binding | no binding | no binding | Ab4 (anti-C5a antibody 1B8) with FQG-YTE variant IgG1 Fc domain (antibody, Full IgG1; also called Ab4 FQG-YTE) heavy: EVQLLESGGGLVQPGGSLRLSCAASGFTFSSYVMNWVRQAPGKGLEWVSSISPSGGRTWYADSVKGRFTISRDNSKNTLYLQMNSLRAEDTAVYYCARSDGSAAGFLGYWGQGTLVTVSSASTKGPSVFPLAPSSKSTSGGTAALGCLVKDYFPEPVTVSWNSGALTSGVHTFPAVLQSSGLYSLSSVVTVPSSSLGTQTYICNVNHKPSNTKVDKRVEPKSCDKTHTCPPCPAPEFQGGPSVFLFPPKPKDTLYITREPEVTCVVVDVSHEDPEVKFNWYVDGVEVHNAKTKPREEQYNSTYRVVSVLTVLHQDWLNGKEYKCKVSNKALPAGIEKTISKAKGQPREPQVYTLPPSREEMTKNQVSLTCLVKGFYPSDIAVEWESNGQPENNYKTTPPVLDSDGSFFLYSKLTVDKSRWQQGNVFSCSVMHEALHNHYTQKSLSLSPGK light: QSALTQPPSASGTPGQRVTISCSGTNSNIGSNYVFWYQQLPGTAPKLLIFESNRRPSGVPDRFSGSKSDTSASLAISGLRSEDEADYYCATWDDTLIAPVFGSGTKVTVLGQPKANPTVTLFPPSSEELQANKATLVCLISDFYPGAVTVAWKADSSPVKAGVETTTPSKQSNNKYAASSYLSLTPEQWKSHRSYSCQVTHEGSTVEKTVAPAEC
4 | 290 nM | – | – | – | – | – | – | no binding | no binding | no binding | no binding | no binding | no binding | Ab4 (anti-C5a antibody 1B8) with FQQ-YTE variant IgG1 Fc domain (antibody, Full IgG1; also called Ab4 FQQ-YTE) heavy: EVQLLESGGGLVQPGGSLRLSCAASGFTFSSYVMNWVRQAPGKGLEWVSSISPSGGRTWYADSVKGRFTISRDNSKNTLYLQMNSLRAEDTAVYYCARSDGSAAGFLGYWGQGTLVTVSSASTKGPSVFPLAPSSKSTSGGTAALGCLVKDYFPEPVTVSWNSGALTSGVHTFPAVLQSSGLYSLSSVVTVPSSSLGTQTYICNVNHKPSNTKVDKRVEPKSCDKTHTCPPCPAPEFQGGPSVFLFPPKPKDTLYITREPEVTCVVVDVSHEDPEVKFNWYVDGVEVHNAKTKPREEQYNSTYRVVSVLTVLHQDWLNGKEYKCQVSNKALPAPIEKTISKAKGQPREPQVYTLPPSREEMTKNQVSLTCLVKGFYPSDIAVEWESNGQPENNYKTTPPVLDSDGSFFLYSKLTVDKSRWQQGNVFSCSVMHEALHNHYTQKSLSLSPGK light: QSALTQPPSASGTPGQRVTISCSGTNSNIGSNYVFWYQQLPGTAPKLLIFESNRRPSGVPDRFSGSKSDTSASLAISGLRSEDEADYYCATWDDTLIAPVFGSGTKVTVLGQPKANPTVTLFPPSSEELQANKATLVCLISDFYPGAVTVAWKADSSPVKAGVETTTPSKQSNNKYAASSYLSLTPEQWKSHRSYSCQVTHEGSTVEKTVAPAEC
